Test results from US20140322196A1.

What was measured:
Test in all cases: cell-based or functional assay
[1] = biological target: Hemagglutinin (HA) of Influenza A virus A/Wisconsin/67/2005 H3N2 (inactivated subunits, vaccine) (Influenza A virus A/Wisconsin/67/2005 H3N2)
[2] = biological target: Hemagglutinin (HA) of Influenza A virus A/Solomon 3/2006 H1N1 (inactivated subunits, vaccine) (Influenza A virus A/Solomon 3/2006 H1N1)
[3] = biological target: Hemagglutinin (HA) of Influenza A virus A/Parma/24/09 (Brisbane-like) (oseltamivir-resistant) H1N1 (Influenza A virus A/Parma/24/09 H1N1)

| Binder | activity on viral hemagglutination (HI) [1] [pM] | activity on viral hemagglutination (HI) [2] [pM] | activity on viral hemagglutination (HI) [3] [nM] |
| --- | --- | --- | --- |
| bLf C-lobe (aa 285-689) (protein) SFQLFGSPPGQRDLLFKDSALGFLRIPSKVDSALYLGSRYLTTLKNLRETAEEVKARYTRVVWCAVGPEEQKKCQQWSQQSGQNVTCATASTTDDCIVLVLKGEADALNLDGGYIYTAGKCGLVPVLAENRKSSKHSSLDCVLRPTEGYLAVAVVKKANEGLTWNSLKDKKSCHTAVDRTAGWNIPMGLIVNQTGSCAFDEFFSQSCAPGADPKSRLCALCAGDDQGLDKCVPNSKEKYYGYTGAFRCLAEDVGDVAFVKNDTVWENTNGESTADWAKNLNREDFRLLCLDGTRKPVTEAQSCHLAVAPNHAVVSRSDRAAHVKQVLLHQQALFGKNGKNCPDKFCLFKSETKNLLFNDNTECLAKLGGRPTYEEYLGTEYVTAIANLKKCSTSPLLEACAFLTR | 1.6 | 5 | 24 |
| bLf C-lobe (aa 345-689) (protein) VVWCAVGPEEQKKCQQWSQQSGQNVTCATASTTDDCIVLVLKGEADALNLDGGYIYTAGKCGLVPVLAENRKSSKHSSLDCVLRPTEGYLAVAVVKKANEGLTWNSLKDKKSCHTAVDRTAGWNIPMGLIVNQTGSCAFDEFFSQSCAPGADPKSRLCALCAGDDQGLDKCVPNSKEKYYGYTGAFRCLAEDVGDVAFVKNDTVWENTNGESTADWAKNLNREDFRLLCLDGTRKPVTEAQSCHLAVAPNHAVVSRSDRAAHVKQVLLHQQALFGKNGKNCPDKFCLFKSETKNLLFNDNTECLAKLGGRPTYEEYLGTEYVTAIANLKKCSTSPLLEACAFLTR | 1.2 | 5 | 10 |
